Measured values from article PMC5725599, “Insights into substrate binding of ferulic acid esterases by arabinose and methyl hydroxycinnamate esters and molecular docking” (Scientific Reports, 2017).

Key:
[1] = substrate: COC(=O)/C=C/c1ccc(O)c(O)c1; experiment: HPLC of released free acid, Michaelis-Menten nonlinear fit; assay type: biochemical, Aspergillus niger; conditions: 100 mM MOPS-NaOH pH 6.0, 45 °C, 30 min, substrate stock in DMSO
Excerpt: (§1) HPLC of released free acid, Michaelis-Menten nonlinear fit on AnFaeA

[2] = substrate: COC(=O)/C=C/c1ccc(O)c(OC)c1; experiment: as above; assay type: biochemical, Aspergillus niger; conditions: 100 mM MOPS-NaOH pH 6.0, 45 °C, 30 min, substrate stock in DMSO
Excerpt: as §1

B1: AnFaeA (Aspergillus niger) (protein)
chain: ASTQGISEDLYNRLVEMATISQAAYADLCNIPSTIIKGEKIYNAQTDINGWILRDDTSKEIITVFRGTGSDTNLQLDTNYTLTPFDTLPQCNDCEVHGGYYIGWISVQDQVESLVKQQASQYPDYALTVTGHSLGASMAALTAAQLSATYDNVRLYTFGEPRSGNQAFASYMNDAFQVSSPETTQYFRVTHSNDGIPNLPPADEGYAHGGVEYWSVDPYSAQNTFVCTGDEVQCCEAQGGQGVNDAHTTYFGMTSGACTW
notes: recombinant, expressed in Pichia pastoris as described previously
Km [1]: 870 ± 170 µM
Km [2]: 1420 ± 260 µM
